From WO2008021263A2 (dated 2008)

What was measured:
[1] = target: T1, dimeric form of SDF-1α (Felis catus (Cat) (Felis silvestris …, UniProt O62657 22-89)); assay: SPR, both formats (SDF-1α on chip; Fab on anti-CH1 chip)
T1 construct: Same protein as m1; also called SDF-lα dimers; dimeric state of the SDF-1α antigen

[2] = target: T2, SDF-1α (stromal cell-derived factor-1 alpha) (Felis catus (Cat) (Felis silvestris …, UniProt O62657 22-89)); assay: SPR, SDF-1α with heparin in solution (Figure 7 legend: 1D3 IgG)
T2 construct: also called SDF-lα; SDF-I α
T2 sequence (O62657 22-89 limits assumed): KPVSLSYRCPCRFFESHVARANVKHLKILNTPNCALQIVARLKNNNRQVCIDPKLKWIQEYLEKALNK

[3] = target: SDF-FITC (FITC-labelled SDF-1α) (Felis catus (Cat) (Felis silvestris …, UniProt O62657 22-89, FITC label, site not stated)); assay: fluorescence polarization time course with FITC-labelled SDF-1α (Figures 8A-8C)
SDF-FITC (FITC-labelled SDF-1α) (Felis catus (Cat), sequence (O62657 22-89 limits assumed): as above

[4] = target: T1, dimeric form of SDF-1α; assay: SPR, IgG immobilised on chip, SDF-1α flowed (Table VI, not shown)
[5] = target: T2, SDF-1α (stromal cell-derived factor-1 …); assay: SPR, time course after dilution of SDF-1α in buffers HBS-EP, HBS-P and HBS-N
[6] = target: T2, SDF-1α (stromal cell-derived factor-1 …); assay: SPR, Fab captured on anti-CH1 chip, SDF-1α flowed (Table IV, not shown)

T1 sequence (O62657 22-89 limits assumed): as above

| binding result [1] | binding result [2] | binding result [3] | binding result [4] | binding result [5] | binding result [6] | Binder |
| --- | --- | --- | --- | --- | --- | --- |
| – | – | binds | binds | binds | – | 1H2 IgG (antibody, V domains shown, Human monoclonal IgG; also called B-type IgG; B-type antibody) VH: QVQLVQSGAEVKKPGASVKVSCKVSGYTFTKLSVHWVRQAPGKGLEWMGSFDPEDGETIYSQRFQGRVTMTEDTSTDTAYMELSSLRSEDTAVYYCATEGQWLVAYYGMDVWGQGTMVTVSS VL: EIVLTQSPSSLSASVGDRVTITCRASQGISSALAWYQQKPGKAPKLLIYDASSLESGVPSRFSGSGSGTDFTLTISSLQPEDFATYYCQQFNSYPLTFGGGTKVEIK |
| binds | – | – | – | – | binds | 1H2 Fab (Fab, V domains shown, Fab of the 1H2 human monoclonal antibody; the constant parts are not; also called B-type Fab) VH: QVQLVQSGAEVKKPGASVKVSCKVSGYTFTKLSVHWVRQAPGKGLEWMGSFDPEDGETIYSQRFQGRVTMTEDTSTDTAYMELSSLRSEDTAVYYCATEGQWLVAYYGMDVWGQGTMVTVSS VL: EIVLTQSPSSLSASVGDRVTITCRASQGISSALAWYQQKPGKAPKLLIYDASSLESGVPSRFSGSGSGTDFTLTISSLQPEDFATYYCQQFNSYPLTFGGGTKVEIK |

The remaining lines, values behind:

| Binder | binding result [1] | binding result [2] | binding result [3] | binding result [4] | binding result [5] | binding result [6] |
| --- | --- | --- | --- | --- | --- | --- |
| 1D3 Fab (Fab, V domains shown, Fab of the 1D3 human monoclonal antibody; the constant parts are not; also called B-type Fab) VH: EVQLVQSGAEVKKPGASVKVSCKVSGYTLTKLSVHWVRQAPGKGLEWMGSFDPEDGETIYSQRFQGRVTMTEDTSTDTAYMELTSLRSEDTAVYYCATEGQWLVAYYGMDVWGQGTTVTVSS VL: EIVLTQSPSSLSASVGDRVTITCRASQGISSALAWYQQKPGKAPKLLIYDASSLESGVPSRFSGSGSGTDFTLTISSLQPEDFATYYCQQFNSYPLTFGGGTKVEIK | binds | – | – | – | – | – |
| 1D3 IgG (antibody, V domains shown, Human monoclonal IgG; also called B-type IgG; B-type antibody) VH: EVQLVQSGAEVKKPGASVKVSCKVSGYTLTKLSVHWVRQAPGKGLEWMGSFDPEDGETIYSQRFQGRVTMTEDTSTDTAYMELTSLRSEDTAVYYCATEGQWLVAYYGMDVWGQGTTVTVSS VL: EIVLTQSPSSLSASVGDRVTITCRASQGISSALAWYQQKPGKAPKLLIYDASSLESGVPSRFSGSGSGTDFTLTISSLQPEDFATYYCQQFNSYPLTFGGGTKVEIK | – | binds | binds | binds | – | – |
